Measurements reported in patent US20140315185A1, “METHODS AND COMPOSITIONS FOR IMPROVING SPERM FUNCTIONALITY” (ANDROGENIX LTD., priority 2011, published 2014).

Columns and labels:
sperm = details: added in sufficient concentration and simultaneously with the H2O2; cited from earlier work
Jurkat cells = assay: Catalase activity assay of treated Jurkat cells; format: cell-based, human; details: units per 2.5×10^6 cells; incubated at 37° C. for 30 min, then centrifuged and resuspended
Method: (§1) Recovery of the cholesterol-PEG5000-FITC-catalase was determined by Coomassie staining and catalase activity assay. For the catalase activity assay, 0.5 μl of test samples and serially diluted bovine catalase (Sigma) were placed in a microtitre plate, and incubated with 50 μl of 10 ng/ml of streptavidin-HRP (Biosource) and 50 μl of TMB substrate (Invitrogen) for 5 min. The plate was read at 450 nm on an EnVision plate reader (PerkinElmer) after stopping the reaction with 50 μl of 2 M sulfuric acid. Catalase activity of the test sample was calculated from the standard curve generated with known concentrations of bovine catalase.
Jurkat cells (ATCC, TIB-152; human T lymphocyte cell line) were cultured in RPMI-1640 media with 10% fetal calf serum. For analysis, cells were removed from culture, centrifuged at 700×g for 5 min, the culture media was removed and cells were resuspended at a concentration of 5×10^7 cells/ml in PBS. […] The Jurkat cells were analyzed by both flow cytometry and catalase activity assay.
The catalase activity of the treated Jurkat cells was measured as described in Example 1. 50 μl of 5×10^7 cells/ml of each test sample was analysed in the assay and the catalase activity contained in each of the Jurkat samples was calculated from the standard curve. […]

bovine sperm [1] = assay: Binding of cholesterol-PEG-catalase to sperm, flow cytometry; format: cell-based; details: sperm incubated with 3 mg/ml conjugate at 37° C. for 30 min, unbound removed on Percoll PLUS
Method: 1.5 ml of bovine sperm in liquid extender was carefully placed on top of 4 ml of 60%_Percoll™ PLUS (GE Healthcare) column, and centrifugated for 20 min at 700×g at 20° C. The resulting purified sperm pellet was resuspended in non-capacitating media (NCM; see Table 2) containing 0.1 mg/ml of BSA to a cell concentration of 5×10^7 ml. 200 μl of the purified sperm was mixed with an equal volume of 3 mg/ml cholesterol-PEG5000-FITC-catalase, and incubated light protected at 37° C. for 30 min. The unbound cholesterol-PEG5000-FITC-catalase was removed by layering 400 μl of sperm/cholesterol-PEG5000-FITC-catalase mixture on the top of 500 μl of 60% Percoll™ PLUS column, followed by centrifugation for 20 min at 700×g at 20° C. The sperm pellet was resuspended in NCM containing 0.1 mg/ml of BSA to a total volume of 400 μl. The binding of cholesterol-PEG5000-FITC-catalase to sperm was analysed by flow cytometry and catalase activity assay. […] The catalase activity of cholesterol-PEG5000-FITC-catalase bound sperm was measured as described in Example 1. 79 units of catalase activity were measured in 2.5×10^6 sperm cells after binding with cholesterol-PEG5000-FITC-catalase, whereas no catalase activity was detected in control sperm without addition of cholesterol-PEG5000-FITC-catalase.

bovine sperm [2] = assay: Catalase activity assay of conjugate-bound sperm; format: cell-based; details: in 2.5×10^6 sperm cells after binding and removal of unbound conjugate
Method: as §1
1.5 ml of bovine sperm in liquid extender was carefully placed on top of 4 ml of 60%_Percoll™ PLUS (GE Healthcare) column, and centrifugated for 20 min at 700×g at 20° C. […] The binding of cholesterol-PEG5000-FITC-catalase to sperm was analysed by flow cytometry and catalase activity assay. […] The catalase activity of cholesterol-PEG5000-FITC-catalase bound sperm was measured as described in Example 1. 79 units of catalase activity were measured in 2.5×10^6 sperm cells after binding with cholesterol-PEG5000-FITC-catalase, whereas no catalase activity was detected in control sperm without addition of cholesterol-PEG5000-FITC-catalase.

In the case of `N[C@@H](CCC(=O)N[C@@H](CS)C(=O)NCC(=O)O)C(=O)O` [glutathione, reference compound], the “rescue of H2O2-induced loss of motility” value (sperm) is given as “able to rescue the loss of motility”.

B1: catalase: Bovine catalase (Sigma), used alone without the cholesterol-PEG5000-FITC linker; antioxidant enzyme (protein, listed as Bos taurus)
chain: MADNRDPASDQMKHWKEQRAAQKPDVLTTGGGNPVGDKLNSLTVGPRGPLLVQDVVFTDEMAHFDRERIPERVVHAKGAGAFGYFEVTHDITRYSKAKVFEHIGKRTPIAVRFSTVAGESGSADTVRDPRGFAVKFYTEDGNWDLVGNNTPIFFIRDALLFPSFIHSQKRNPQTHLKDPDMVWDFWSLRPESLHQVSFLFSDRGIPDGHRHMNGYGSHTFKLVNANGEAVYCKFHYKTDQGIKNLSVEDAARLAHEDPDYGLRDLFNAIATGNYPSWTLYIQVMTFSEAEIFPFNPFDLTKVWPHGDYPLIPVGKLVLNRNPVNYFAEVEQLAFDPSNMPPGIEPSPDKMLQGRLFAYPDTHRHRLGPNYLQIPVNCPYRARVANYQRDGPMCMMDNQGGAPNYYPNSFSAPEHQPSALEHRTHFSGDVQRFNSANDDNVTQVRTFYLKVLNEEQRKRLCENIAGHLKDAQLFIQKKAVKNFSDVHPEYGSRIQALLDKYNEEKPKNAVHTYVQHGSHLSAREKANL
In the case of B1, the “catalase activity in Jurkat cells” value (Jurkat cells) is given as 44 U and the “rescue of H2O2-induced loss of motility” value (sperm) is given as “able to rescue the loss of motility”.

B2: cholesterol-PEG5000-FITC-catalase: Bovine catalase covalently labelled with cholesterol-PEG5000-NHS-FITC; 4.0 to 5.4 cholesterol-PEG per catalase monomer (conjugate, UniProt P00432 2-527, looked up)
Catalase: ADNRDPASDQMKHWKEQRAAQKPDVLTTGGGNPVGDKLNSLTVGPRGPLLVQDVVFTDEMAHFDRERIPERVVHAKGAGAFGYFEVTHDITRYSKAKVFEHIGKRTPIAVRFSTVAGESGSADTVRDPRGFAVKFYTEDGNWDLVGNNTPIFFIRDALLFPSFIHSQKRNPQTHLKDPDMVWDFWSLRPESLHQVSFLFSDRGIPDGHRHMNGYGSHTFKLVNANGEAVYCKFHYKTDQGIKNLSVEDAARLAHEDPDYGLRDLFNAIATGNYPSWTLYIQVMTFSEAEIFPFNPFDLTKVWPHGDYPLIPVGKLVLNRNPVNYFAEVEQLAFDPSNMPPGIEPSPDKMLQGRLFAYPDTHRHRLGPNYLQIPVNCPYRARVANYQRDGPMCMMDNQGGAPNYYPNSFSAPEHQPSALEHRTHFSGDVQRFNSANDDNVTQVRTFYLKVLNEEQRKRLCENIAGHLKDAQLFIQKKAVKNFSDVHPEYGSRIQALLDKYNEEKPKNAVHTYVQHGSHLSAREKANL
modifications: cholesterol-PEG5000-FITC label
notes: Bovine catalase covalently labelled with cholesterol-PEG5000-NHS-FITC; 4.0 to 5.4 cholesterol-PEG per catalase monomer
With B2 the “binding to live sperm (Hoechst 33258 negative)” value (bovine sperm [1]) was “approx. 10 fold over background”, the “catalase activity of bound sperm” value (bovine sperm [2]) was 79 units and the “catalase activity in Jurkat cells” value (Jurkat cells) was 66 U.
